Consider 3 molecules from article PMC10653801.

The target in the data set is HipB(Lp) (Legionella pneumophila Lp01JK, UniProt Q5ZSZ8 1-75). The data set can be described thus: EMSA; HipB 2.5 nM, DNA 10 nM. The note with it: protein: recombinant; tags: His6-SBP tag cleaved; chain copies: 2; blunt. In general terms: A gel shift assay detects complexes by their altered migration in electrophoresis.

B1: CO (random + O1) (dsDNA)
DNA 1: ACTGTGAGCCTAATATTTACTGCTATAACAGTAAAGGCTATCTGATTTTA
DNA 2: TAAAATCAGATAGCCTTTACTGTTATAGCAGTAAATATTAGGCTCACAGT
Turning to B1, the binding result was “binds”.

B2: OS (O1 scrambled) (dsDNA)
DNA 1: TATCATTTAACAAACTCGATTTGTTATATATAATTAATTTTTGGTGTTCC
DNA 2: GGAACACCAAAAATTAATTATATATAACAAATCGAGTTTGTTAAATGATA
Regarding B2, the binding result was “no binding”.

B3: OI (O1 downstream repeat inverted) (dsDNA)
DNA 1: TATCATTTTTACTGCTATAAAATGACTATATAATTAATTTTTGGTGTTCC
DNA 2: GGAACACCAAAAATTAATTATATAGTCATTTTATAGCAGTAAAAATGATA
Consider B3, for which the binding result is “binds”.
